Laboratory results from US20210388053A1.
Blank lines part the entries; values can stand above or below the binder they belong to.

What was measured:
[1] = biological target: canine FcRn/B2M protein complex (canine FcRn ECD with C-terminal poly-His tag and canine Beta-2-Microglobulin) (canine); experiment: SPR Biacore T200, pH 6.0; biotinylated FcRn/B2M captured on streptavidin, antibody 2.5-160 nM as analyte, kinetic fit
[2] = biological target: canine FcRn/B2M protein complex (canine FcRn ECD with C-terminal poly-His tag and canine Beta-2-Microglobulin) (canine); experiment: SPR Biacore T200, pH 6.0; biotinylated FcRn/B2M captured on streptavidin, antibody 12.5-800 nM, steady state analysis
[3] = biological target: canine FcRn/B2M protein complex (canine FcRn ECD with C-terminal poly-His tag and canine Beta-2-Microglobulin) (canine); experiment: SPR Biacore T200, pH 6.0; biotinylated FcRn/B2M captured on streptavidin, antibody 18.75-1200 nM, steady state analysis
[4] = biological target: canine FcRn/B2M protein complex (canine FcRn ECD with C-terminal poly-His tag and canine Beta-2-Microglobulin) (canine); experiment: SPR Biacore T200, pH 6.0; biotinylated FcRn/B2M captured on streptavidin, antibody 1.5625-100 nM as analyte, kinetic fit
[5] = biological target: canine FcRn/B2M protein complex (canine FcRn ECD with C-terminal poly-His tag and canine Beta-2-Microglobulin) (canine); experiment: SPR Biacore 8K, pH 6.0, 25 C; Fc captured by SASA tag on BSA chip, FcRn/B2M 400 nM as analyte
[6] = biological target: canine FcRn/B2M protein complex (canine FcRn ECD with C-terminal poly-His tag and canine Beta-2-Microglobulin) (canine); experiment: SPR Biacore 8K, pH 6.0, 25 C; Fc captured by SASA tag on BSA chip, FcRn/B2M 400 nM as analyte; dissociation exceeded the detection limit

Chain of canine FcRn/B2M protein complex (canine FcRn ECD with C-terminal poly-His tag and canine Beta-2-Microglobulin) (canine) (chain, as listed by the source limits assumed, form in doubt, chain 1 of 2): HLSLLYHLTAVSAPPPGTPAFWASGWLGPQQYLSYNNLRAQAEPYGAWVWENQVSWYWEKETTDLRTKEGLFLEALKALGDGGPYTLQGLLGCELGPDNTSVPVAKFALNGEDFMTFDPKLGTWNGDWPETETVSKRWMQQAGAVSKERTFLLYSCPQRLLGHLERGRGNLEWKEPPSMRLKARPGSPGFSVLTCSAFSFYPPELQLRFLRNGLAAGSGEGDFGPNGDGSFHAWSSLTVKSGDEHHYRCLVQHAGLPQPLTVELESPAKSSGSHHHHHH
Chain of canine FcRn/B2M protein complex (canine FcRn ECD with C-terminal poly-His tag and canine Beta-2-Microglobulin) (canine) (b2m, as listed by the source limits assumed, form in doubt, chain 2 of 2): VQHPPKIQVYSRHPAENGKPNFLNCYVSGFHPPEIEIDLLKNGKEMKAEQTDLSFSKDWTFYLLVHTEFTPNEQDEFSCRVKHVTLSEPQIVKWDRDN

B4: caninized anti-canine IL31 clone M14 antibody with YYY variant canine IgG-B Fc polypeptide (antibody)
heavy: EVQLVESGPSLVKPGGSLRLTCSVTGDSITSGYWNWIRKFPGNKLEYMGYISYSGITDYNPSLKSRITISRDTSKNQYYLQLNSVTTEDTATYYCARYGNYGYAMDYWGQGTLVTVSSASTTAPSVFPLAPSCGSTSGSTVALACLVSGYFPEPVTVSWNSGSLTSGVHTFPSVLQSSGLYSLSSMVTVPSSRWPSETFTCNVAHPASKTKVDKPVPKRENGRVPRPPDCPKCPAPEMLGGPSVFIFPPKPKDTLYIARTPEVTCVVVDLDPEDPEVQISWFVDGKQMQTAKTQPREEQFNGTYRVVSVLPIGHYDWLKGKQFTCKVNNKALPSPIERTISKARGQAHQPSVYVLPPSREELSKNTVSLTCLIKDFFPPDIDVEWQSNGQQEPESKYRTTPPQLDEDGSYFLYSKLSVDKSRWQRGDTFICAVMHEALHYHYTQESLSHSPGK
light: DIVMTQSPASLSVSLGQRATISCRASESVDTYGNSFMHWYQQKPGQSPKLLIYRASNLESGIPARFGGSGSGTDFTLTIDPVQADDVATYYCQQSYEDPWTFGGGTKLEIKRNDAQPAVYLFQPSPDQLHTGSASVVCLLNSFYPKDINVKWKVDGVIQDTGIQESVTEQDKDSTYSLSSTLTMSSTEYLSHELYSCEITHKSLPSTLIKSFQRSECQRVD
Kd [4]: 3.84 nM | koff [4]: 0.000869 s⁻¹ | kon [4]: 227000 M⁻¹ s⁻¹

B5: variant canine IgG-B Fc polypeptide YYF (Leu24Tyr, Gln83Tyr, Asn208Phe) (protein, not shown: small tags and cut ends)
chain: CPAPEMLGGPSVFIFPPKPKDTLYIARTPEVTCVVVDLDPEDPEVQISWFVDGKQMQTAKTQPREEQFNGTYRVVSVLPIGHYDWLKGKQFTCKVNNKALPSPIERTISKARGQAHQPSVYVLPPSREELSKNTVSLTCLIKDFFPPDIDVEWQSNGQQEPESKYRTTPPQLDEDGSYFLYSKLSVDKSRWQRGDTFICAVMHEALHFHYTQESLSHSPGK
kon [5]: 271000 M⁻¹ s⁻¹ | Kd [6]: 0.000602 nM | koff [6]: 1.63e-07 s⁻¹

B6: variant canine IgG-B Fc polypeptide YYY (Leu24Tyr, Gln83Tyr, Asn208Tyr) (protein, not shown: small tags and cut ends)
chain: CPAPEMLGGPSVFIFPPKPKDTLYIARTPEVTCVVVDLDPEDPEVQISWFVDGKQMQTAKTQPREEQFNGTYRVVSVLPIGHYDWLKGKQFTCKVNNKALPSPIERTISKARGQAHQPSVYVLPPSREELSKNTVSLTCLIKDFFPPDIDVEWQSNGQQEPESKYRTTPPQLDEDGSYFLYSKLSVDKSRWQRGDTFICAVMHEALHYHYTQESLSHSPGK
kon [5]: 262000 M⁻¹ s⁻¹ | Kd [6]: 0.000713 nM | koff [6]: 1.87e-07 s⁻¹

Continued, values first:

Kd [1]: 15.6 nM | koff [1]: 0.00262 s⁻¹ | kon [1]: 168000 M⁻¹ s⁻¹
B1: caninized anti-canine IL31 clone M14 antibody with Y0Y variant canine IgG-B Fc polypeptide (antibody)
heavy: EVQLVESGPSLVKPGGSLRLTCSVTGDSITSGYWNWIRKFPGNKLEYMGYISYSGITDYNPSLKSRITISRDTSKNQYYLQLNSVTTEDTATYYCARYGNYGYAMDYWGQGTLVTVSSASTTAPSVFPLAPSCGSTSGSTVALACLVSGYFPEPVTVSWNSGSLTSGVHTFPSVLQSSGLYSLSSMVTVPSSRWPSETFTCNVAHPASKTKVDKPVPKRENGRVPRPPDCPKCPAPEMLGGPSVFIFPPKPKDTLYIARTPEVTCVVVDLDPEDPEVQISWFVDGKQMQTAKTQPREEQFNGTYRVVSVLPIGHQDWLKGKQFTCKVNNKALPSPIERTISKARGQAHQPSVYVLPPSREELSKNTVSLTCLIKDFFPPDIDVEWQSNGQQEPESKYRTTPPQLDEDGSYFLYSKLSVDKSRWQRGDTFICAVMHEALHYHYTQESLSHSPGK
light: DIVMTQSPASLSVSLGQRATISCRASESVDTYGNSFMHWYQQKPGQSPKLLIYRASNLESGIPARFGGSGSGTDFTLTIDPVQADDVATYYCQQSYEDPWTFGGGTKLEIKRNDAQPAVYLFQPSPDQLHTGSASVVCLLNSFYPKDINVKWKVDGVIQDTGIQESVTEQDKDSTYSLSSTLTMSSTEYLSHELYSCEITHKSLPSTLIKSFQRSECQRVD

Kd [2]: 231 nM
B2: caninized anti-canine IL31 clone M14 antibody with YTE variant canine IgG-B Fc polypeptide (antibody)
heavy: EVQLVESGPSLVKPGGSLRLTCSVTGDSITSGYWNWIRKFPGNKLEYMGYISYSGITDYNPSLKSRITISRDTSKNQYYLQLNSVTTEDTATYYCARYGNYGYAMDYWGQGTLVTVSSASTTAPSVFPLAPSCGSTSGSTVALACLVSGYFPEPVTVSWNSGSLTSGVHTFPSVLQSSGLYSLSSMVTVPSSRWPSETFTCNVAHPASKTKVDKPVPKRENGRVPRPPDCPKCPAPEMLGGPSVFIFPPKPKDTLYITREPEVTCVVVDLDPEDPEVQISWFVDGKQMQTAKTQPREEQFNGTYRVVSVLPIGHQDWLKGKQFTCKVNNKALPSPIERTISKARGQAHQPSVYVLPPSREELSKNTVSLTCLIKDFFPPDIDVEWQSNGQQEPESKYRTTPPQLDEDGSYFLYSKLSVDKSRWQRGDTFICAVMHEALHNHYTQESLSHSPGK
light: DIVMTQSPASLSVSLGQRATISCRASESVDTYGNSFMHWYQQKPGQSPKLLIYRASNLESGIPARFGGSGSGTDFTLTIDPVQADDVATYYCQQSYEDPWTFGGGTKLEIKRNDAQPAVYLFQPSPDQLHTGSASVVCLLNSFYPKDINVKWKVDGVIQDTGIQESVTEQDKDSTYSLSSTLTMSSTEYLSHELYSCEITHKSLPSTLIKSFQRSECQRVD

Kd [3]: 410 nM
B3: caninized anti-canine IL31 clone M14 antibody with wild-type canine IgG-B Fc polypeptide (antibody)
heavy: EVQLVESGPSLVKPGGSLRLTCSVTGDSITSGYWNWIRKFPGNKLEYMGYISYSGITDYNPSLKSRITISRDTSKNQYYLQLNSVTTEDTATYYCARYGNYGYAMDYWGQGTLVTVSSASTTAPSVFPLAPSCGSTSGSTVALACLVSGYFPEPVTVSWNSGSLTSGVHTFPSVLQSSGLYSLSSMVTVPSSRWPSETFTCNVAHPASKTKVDKPVPKRENGRVPRPPDCPKCPAPEMLGGPSVFIFPPKPKDTLLIARTPEVTCVVVDLDPEDPEVQISWFVDGKQMQTAKTQPREEQFNGTYRVVSVLPIGHQDWLKGKQFTCKVNNKALPSPIERTISKARGQAHQPSVYVLPPSREELSKNTVSLTCLIKDFFPPDIDVEWQSNGQQEPESKYRTTPPQLDEDGSYFLYSKLSVDKSRWQRGDTFICAVMHEALHNHYTQESLSHSPGK
light: DIVMTQSPASLSVSLGQRATISCRASESVDTYGNSFMHWYQQKPGQSPKLLIYRASNLESGIPARFGGSGSGTDFTLTIDPVQADDVATYYCQQSYEDPWTFGGGTKLEIKRNDAQPAVYLFQPSPDQLHTGSASVVCLLNSFYPKDINVKWKVDGVIQDTGIQESVTEQDKDSTYSLSSTLTMSSTEYLSHELYSCEITHKSLPSTLIKSFQRSECQRVD
